Values joined by “and” are separate entries in the source; they are usually repeats but may differ in a detail not shown here. Identical values can stand only once. “Also recorded” adds a separate entry of the source. Like-named read-outs stand apart in the source and are kept apart here.
How the values were obtained:
Jurkat = test: Sensitivity of cell lines towards BT062; type: cell-based; conditions: T cell lymphoma
[1] = system: relapsed or relapsed refractory multiple myeloma
Description: Initially, the response to treatment was evaluated at day 1 of treatment cycles 1-3 by M-protein quantification using immunoelectrophoresis (IEP) and immunofixation electrophoresis (IFE) from serum and 24-hour urine collection. […] A general quantitative immunoglobulin assessment was done together with M-protein quantification.
Serum samples were used to perform FLC assays to examine multiple myeloma subjects with no detectable M-protein (nonsecretory/oligosecretory myeloma) and to allow for detection of early response to treatment. Therefore serum FLC assays were performed on day 1, 2, 3, and 8 of treatment cycle 1, on day 2, 3, 8 and 15 of cycle 4, as well as on day 1, 8 and 15 of all other treatment cycles. M-protein and FLC were be analyzed at the screening and at the close-out visit. Evaluations at day 1 of cycle 1 served as baseline values.

[2] = Plasma level of BT062 (PK ELISA), repeated single dose; type: in vivo, human; conditions: for effective Cmax (cycle 1) mean: 0-2 h post infusion; for effective Cmax (cycle 4) mean: day 64
Description: (§1) Theoretical Cmax was Calculated According to the Following Assumed Parameters: […]
The same evaluation was performed during treatment cycle 4. […] The amount of BT062 in the plasma is determined via a PK ELISA method described as follows:
(§2) The wells of a microtiter plate are first coated with anti-maytansinoid (anti-DM4) antibody overnight at 2-8° C. and after blocking with assay buffer (0.5% BSA/TBS) incubated on the next day with plasma samples. These are diluted beforehand at least 1:100 in assay buffer. […] After incubation, unbound material is removed by washing. […] Unbound secondary antibody is removed by another washing step. After this, TMB substrate solution is pipetted into all the wells. […] The color reaction is ended using a stop solution, which causes the color to change from blue to yellow. The final measurement is carried out with a photometer at a wavelength of 450 nm.
(§3) The relationship between concentration and optical density is evaluated using Magellan V6.6 software.

[3] = Plasma level of BT062 (PK ELISA), repeated multiple dose; type: in vivo, human
Description: as §1
The same evaluation was performed during treatment cycle 4.
as §2, §3

CD138+ MOLP-8 cells = test: WST cell viability assay; type: cell-based
Description: CD138^+ MOLP-8 cells were seeded in flat bottom plates at 3000 cells/well. CD138^− BJAB control cells were seeded at 1000 cells/well. WST reagent (water-soluble tetrazolium salt, ROCHE) was added in order to measure cell viability according to the manufacturer's instruction (ROCHE). The reagent was incubated for 7.5 h on MOLP-8 cells and for 2 h on BJAB cells. The fraction of surviving cells was calculated based on the optical densities measured in a microplate reader using standard procedures.

[4] = system: pancreatic tumor tissue PAXF 736; test: Pancreas carcinoma xenograft; type: in vivo, NMRI mice; conditions: for T/C (%): day 52
Description: (§4) These tumors display similar characteristics as the patient tumors, since they are passaged in mice at low numbers, to retain original characteristics.
Tumor diameters have been measured two times a week. Tumor volumes were calculated according to the formula axbxb/2 where “a” is the longest axis and “b” the perpendicular axis thereto.
Tumor inhibition for a particular day (T/C in %) was calculated from the ratio of the median RTV (relative tumor volume) values of test versus control groups multiplied by 100%.

[5] = system: primary mammary tumor of a patient; test: Mammary carcinoma xenograft; type: in vivo, NMRI (nude) mice; conditions: for T/C: day 21
[6] = system: metastatic patient tissues derived from a bladder tumor; test: Metastatic bladder tumor xenograft; type: in vivo, NMRI (nude) mice; conditions: both dose groups (4 mg/kg and 23.85 mg/kg once per week)
Source text: as §4
To investigate metastatic tumors, NMRI (nude) mice were implanted with a metastatic patient tissues derived from a bladder tumor (determined via IHC analysis as CD138 strong positive).

[7] = system: human derived breast cancer model with CD138 IHC score 1-2; test: Breast cancer model, CD138 IHC score 1-2; type: in vivo, NMRI nude mice; conditions: 1-4 mg/kg once weekly (FIG. 37)
Source text: No difference in the treatment regimens was observed. The results are shown in terms of the effect on the mean relative tumor volume in the model relative to an intravenous administration of PBS. For the calculation of the median relative tumor volume on day, see FIG. 33.

primary pancreatic tumor = test: Example 9 xenograft (FIG. 38); type: in vivo, NMRI (nude) mice; conditions: 4 and 8 mg/kg once weekly; re-growth in treatment free period
Source text: The results are shown in terms of the effect on the mean relative tumor volume.

[8] = repeated single doses of 160 mg/m^2 (FIG. 28)

BT062
IC50 (Jurkat): 39 nM
treatment cycles of 21 days without disease progression ([1]; 20 mg/m^2, one patient): 10 cycles and Diseases progression after Cycle 10 cycles
response (urine M-protein criteria) ([1]; 20 mg/m^2, after 8th treatment): M-Protein criteria for Minor Response reached after 8th
Serum M-Protein ([1]; 40 mg/m^2, after 1st treatment): Serum M-Protein decreased after 1st treatment and stabilized
response (FLC criteria) ([1]; 160 mg/m^2, after 2nd, 3rd and 4th administration (FIG. 26)): partial response; also recorded: FLC criteria for Partial Response were reached very early
FLC levels reduced vs baseline ([1]; 160 mg/m^2, after 2nd, 3rd and 4th treatment): > 50%
FLC levels reduced vs baseline ([1]; 160 mg/m^2, during 1st cycle): ~40%
toxicity in the mucosa ([1]; 200 mg/m^2 dose group): DLTs
patients out of 32 with diminished disease progression (at least a fourth treatment cycle) ([1]; all dose levels): At least 12
MTD ([1]; human, in vivo): 160 mg/m^2
decrease of urine M-protein ([1]; repeated single dosages, e.g. 20, 40, 80 and 120 mg/m^2): more than 50%
MAD ([1]; repeated single dose): 200 mg/m^2
toxicity towards non-cancer cells expressing CD138 ([1]; repeated single dose up to 120 mg/m^2): no dose limiting toxicity
eye toxicity ([1]; repeated single dose, not qualifying for DLT): Serious adverse events
M-protein levels reduced by [1, 8]: 25%
progression free survival [1, 8]: about 22 months
Tolerability ([1]; single dose every three weeks, 200 mg/m^2): DLTs
dose limiting toxicity (DLT) dose ([1]; single dose once in 21 day cycle): 200 mg/m^2
percentage of theoretical Cmax (cycle 1) ([2]; 10 mg/m^2): 15%
effective Cmax (cycle 1) mean ([2]; 10 mg/m^2): 1110 ng/mL and 1100 ng/mL
percentage of theoretical Cmax (cycle 1) ([2]; 20 mg/m^2): 20%
percentage of theoretical Cmax (cycle 4) ([2]; 20 mg/m^2): 49%
effective Cmax (cycle 1) mean ([2]; 20 mg/m^2): 2900 ng/mL
effective Cmax (cycle 4) mean ([2]; 20 mg/m^2): 7060 ng/mL
percentage of theoretical Cmax (cycle 1) ([2]; 40 mg/m^2): 16%
percentage of theoretical Cmax (cycle 4) ([2]; 40 mg/m^2): 9%
effective Cmax (cycle 1) mean ([2]; 40 mg/m^2): 4310 ng/mL
effective Cmax (cycle 4) mean ([2]; 40 mg/m^2): 2510 ng/mL
percentage of theoretical Cmax (cycle 1) ([2]; 80 mg/m^2): 34%
percentage of theoretical Cmax (cycle 4) ([2]; 80 mg/m^2): 26%
effective Cmax (cycle 1) mean ([2]; 80 mg/m^2): 18800 ng/mL
effective Cmax (cycle 4) mean ([2]; 80 mg/m^2): 14200 ng/mL
percentage of theoretical Cmax (cycle 1) ([2]; 120 mg/m^2): 26.5%
effective Cmax (cycle 1) mean ([2]; 120 mg/m^2): 21400 ng/mL
percentage of theoretical Cmax (cycle 1) ([2]; 160 mg/m^2): 74.5%
percentage of theoretical Cmax (cycle 4) ([2]; 160 mg/m^2): 71%
effective Cmax (cycle 1) mean ([2]; 160 mg/m^2): 81200 ng/mL
effective Cmax (cycle 4) mean ([2]; 160 mg/m^2): 77400 ng/mL
percentage of theoretical Cmax (cycle 1) ([2]; 200 mg/m^2): 60%
effective Cmax (cycle 1) mean ([2]; 200 mg/m^2): 82000 ng/mL
% of theoretical Cmax, Mean (%) ([3]; 40 mg/m^2 weekly): 33%
Mean conc. missing to theor. Cmax per Cycle ([3]; 40 mg/m^2 weekly, table rows = cycles C1 to C4): 19.5
% of theoretical Cmax, Mean (%) ([3]; 50 mg/m^2 weekly): 33%
Mean conc. missing to theor. Cmax per Cycle ([3]; 50 mg/m^2 weekly, table rows = cycles C1 to C4): 23.3
% of theoretical Cmax, Mean (%) ([3]; 65 mg/m^2 weekly): 60%
% of theoretical Cmax ([3]; 65 mg/m^2 weekly, cycle/day C1 D1 to C3 D15): 43% and 63% and 72% and 52% and 61% and 71% and 73%
Mean conc. missing to theor. Cmax per Cycle ([3]; 65 mg/m^2 weekly, table rows = cycles C1 to C3): 15.3
Plasma level/Mean ([3]; 80 mg/m^2, 2 hr after completion of administration on days 0, 7, 14): 22910 ng/mL
% of theoretical Cmax ([3]; 80 mg/m^2 weekly, cycle/day C1 D1 to C3 D15): 42% and 45% and 50% and 43% and 39% and 53% and 41%
Mean conc. missing to theor. Cmax per Cycle ([3]; 80 mg/m^2 weekly, table rows = cycles C1 to C3): 30.3
% of theoretical Cmax, Mean (%) ([3]; 100 mg/m^2 weekly): 108%
% of theoretical Cmax, Mean (%) ([3]; 120 mg/m^2 weekly): 69%
% of theoretical Cmax ([3]; 120 mg/m^2 weekly, cycle/day C1 D1 to C2 D15): 69% and 74% and 79% and 62% and 67%
actual Cmax as % of theoretical Cmax ([3]; 3×50 mg/m^2 on days 1, 8, 15): < 50%
cytotoxicity after preincubation with molar excess of unconjugated nBT062 (CD138+ MOLP-8 cells; FIG. 7 (D)): substantially blocked
cytotoxic activity (CD138+ MOLP-8 cells; five days, FIG. 7): very similar
complete remission obtained, days after tumor implantation ([4]; 13.25 mg/kg): 35 days
mice alive after 52 days ([4]; 13.25 mg/kg): 8/8
T/C (%) ([4]; 13.25 mg/kg once weekly): 0.0%
complete remission obtained, days after tumor implantation ([4]; 23.85 mg/kg): 28 days
T/C (%) ([4]; 23.85 mg/kg once weekly): 0.0%
tumor regrowth in treatment free observation phase ([4]; both treatment groups): no tumor regrowth
side effects ([4]; mouse, in vivo): No side effects
mice with complete remission without tumor regrowth ([5]; 1 mg/kg once weekly): 3/7
mice with partial remission ([5]; 1 mg/kg once weekly): 2/7
tumor response ([5]; 1 mg/kg once weekly): tumor stasis
T/C ([5]; 13.25 mg/kg/4 mg/kg): 0.0
T/C ([5]; 23.85 mg/kg): 0.0
tumor response ([5]; 4 and 2 mg/kg once weekly (FIG. 35)): complete remission
tumor regrowth in treatment free observation period ([5]; 39 days after the last administration): no tumor regrowth
complete remission achieved after ([5]; FIG. 9): 21 days
T/C value ([5]; both treatment groups): below 10%
influence on body weight after each injection ([5]; mouse, in vivo): no influence on body weight
tumor response [6]: Complete remission
tumor response [7]: did not respond
tumor response (primary pancreatic tumor): complete remission
